From patent US20190077876A1 (AbbVie / Abbott, published 2019) come the findings set out here.

In test [1] the target is T1, human CLDN9 protein (human, UniProt O95484 1-217).
T1 construct: whole, on cells; also called hCLDN9; CLND9
T1 sequence (looked up): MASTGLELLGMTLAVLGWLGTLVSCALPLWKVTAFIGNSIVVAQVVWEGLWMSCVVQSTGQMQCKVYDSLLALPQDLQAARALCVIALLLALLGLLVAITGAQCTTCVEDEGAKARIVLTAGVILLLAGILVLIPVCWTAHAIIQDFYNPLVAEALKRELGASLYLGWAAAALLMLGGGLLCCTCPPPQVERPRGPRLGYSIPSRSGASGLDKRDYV
Put plainly: flow cytometry, antibody titration on HEK-293T cells overexpressing CLDN9, four parameter fit of fraction maximal binding; HEK-293T cells overexpressing CLDN9. (In general: In flow cytometry, cells or beads pass a laser one at a time.)
Source text: (§1) Following additional washing with PBS, cells were fixed with paraformaldehyde (PFA) and read on a BD FACS Canto II flow cytometer in accordance with the manufacturer's instructions. MFI values were normalized using fluorescent microspheres (Bangs Laboratories) according to manufacturer's instructions.

Test [2] deals with T2, human CLDN6 protein (human, UniProt P56747 1-220).
T2 construct: whole, on cells; also called hCLDN6; claudin 6
T2 sequence (looked up): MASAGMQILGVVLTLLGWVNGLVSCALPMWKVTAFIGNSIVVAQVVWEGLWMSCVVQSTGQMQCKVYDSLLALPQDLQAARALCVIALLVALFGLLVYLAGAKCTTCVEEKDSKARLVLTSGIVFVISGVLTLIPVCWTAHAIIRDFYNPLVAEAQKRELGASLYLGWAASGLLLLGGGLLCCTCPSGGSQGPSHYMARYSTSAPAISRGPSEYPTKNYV
Put plainly: flow cytometry, antibody titration on HEK-293T cells overexpressing CLDN6, four parameter fit of fraction maximal binding; HEK-293T cells overexpressing CLDN6.
Source text: as §1

In test [3] the target is T3, human CLDN4 protein (human, UniProt O14493 1-209).
T3 construct: whole, on cells; also called hCLDN4; claudin 4
T3 sequence (looked up): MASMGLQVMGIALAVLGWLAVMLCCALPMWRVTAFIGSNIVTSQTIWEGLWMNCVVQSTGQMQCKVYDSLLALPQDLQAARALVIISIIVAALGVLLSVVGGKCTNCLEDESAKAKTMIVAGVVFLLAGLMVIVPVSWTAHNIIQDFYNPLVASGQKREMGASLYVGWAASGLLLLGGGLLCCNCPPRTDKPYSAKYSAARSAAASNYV
Kind of test: flow cytometry on cells overexpressing human CLDN4; 10 µg/mL purified antibody, Alexa 647 anti-mouse secondary; single point.

Test [4] deals with T2, human CLDN6 protein. Kind of test: flow cytometry on cells overexpressing human CLDN6; 10 µg/mL purified antibody, Alexa 647 anti-mouse secondary; single point.
Test [5] has as its target T1, human CLDN9 protein. Kind of test: flow cytometry on cells overexpressing human CLDN9; 10 µg/mL purified antibody, Alexa 647 anti-mouse secondary; single point.
Test [6] deals with T2, human CLDN6 protein. Kind of test: cell-based or functional assay.
Test [7] addresses T1, human CLDN9 protein. Put plainly: cell-based or functional assay.
The target in test [8] is T3, human CLDN4 protein. Kind of test: flow cytometry on cells overexpressing human CLDN4; Alexa 647 anti-mouse secondary; single point.
In test [9] the target is T2, human CLDN6 protein. Kind of test: cell-based or functional assay. The source holds these as a separate data set.
Test [10] concerns the target T1, human CLDN9 protein. Kind of test: cell-based or functional assay. This is another data set of the same source.
Test [11] addresses hCLDN proteins on the surface of PDX tumor cells. Kind of test: flow cytometry on OV54MET (OV-S) PDX tumor cells, NTG subpopulation; change in geometric MFI against the IgG1 isotype control.
Test [12] shares this target. Put plainly: flow cytometry on PA49 (PDAC) PDX tumor cells, NTG subpopulation; change in geometric MFI against the IgG1 isotype control.
The target is the same in test [13]. Put plainly: flow cytometry on OV91MET (OV-PS) PDX tumor cells, CSC subpopulation (EPCAM+ CD46hi CD324+); change in geometric MFI against the IgG1 isotype control.
For test [14] the target is unchanged. Put plainly: flow cytometry on PA24 (PDAC) PDX tumor cells, CSC subpopulation (EPCAM+ CD46hi CD324+); change in geometric MFI against the IgG1 isotype control.
Test [15] shares this target. Kind of test: flow cytometry on PA24 (PDAC) PDX tumor cells, NTG subpopulation; change in geometric MFI against the IgG1 isotype control.
Test [16] shares this target. Kind of test: flow cytometry on OV44 (OV-S) PDX tumor cells, CSC subpopulation (EPCAM+ CD46hi CD324+); change in geometric MFI against the IgG1 isotype control.
Test [17] shares this target. Put plainly: flow cytometry on OV44 (OV-S) PDX tumor cells, NTG subpopulation; change in geometric MFI against the IgG1 isotype control.
Test [18] has the same target. Kind of test: flow cytometry on PA49 (PDAC) PDX tumor cells, CSC subpopulation (EPCAM+ CD46hi CD324+); change in geometric MFI against the IgG1 isotype control.
For test [19] the target is unchanged. Put plainly: flow cytometry on LU22 (LU-Sq) PDX tumor cells, CSC subpopulation (EPCAM+ CD46hi CD324+); change in geometric MFI against the IgG1 isotype control.
The target is the same in test [20]. Kind of test: flow cytometry on PA20 (PDAC) PDX tumor cells, CSC subpopulation (EPCAM+ CD46hi CD324+); change in geometric MFI against the IgG1 isotype control.
Test [21] shares this target. Kind of test: flow cytometry on OV91MET (OV-PS) PDX tumor cells, NTG subpopulation; change in geometric MFI against the IgG1 isotype control.
Test [22] has the same target. Kind of test: flow cytometry on LU135 (LU-Ad) PDX tumor cells, NTG subpopulation; change in geometric MFI against the IgG1 isotype control.
Test [23] has the same target. Put plainly: flow cytometry on LU135 (LU-Ad) PDX tumor cells, CSC subpopulation (EPCAM+ CD46hi CD324+); change in geometric MFI against the IgG1 isotype control.
Test [24] shares this target. Put plainly: flow cytometry on OV54MET (OV-S) PDX tumor cells, CSC subpopulation (EPCAM+ CD46hi CD324+); change in geometric MFI against the IgG1 isotype control.
For test [25] the target is unchanged. Kind of test: flow cytometry on PA20 (PDAC) PDX tumor cells, NTG subpopulation; change in geometric MFI against the IgG1 isotype control.
Test [26] has the same target. Kind of test: flow cytometry on LU22 (LU-Sq) PDX tumor cells, NTG subpopulation; change in geometric MFI against the IgG1 isotype control.

B1: hSC27.22 humanized anti-CLDN antibody (antibody, human IgG1, kappa, V domains shown)
VH: QVQLVQSGAEVKKPGASVKVSCKASGYTFTSYWMNWVRQAPGQRLEWMGMIHPSDSEIRLNQKFKDRVTITRDTSASTAYMELSSLRSEDTAVYYCARIDSYYGYLFYFDYWGQGTTVTVSS
VL: DIVMTQSPDSLAVSLGERATINCRASQTVSTSSYSYMHWYQQKPGQPPKLLIYFASNVESGVPDRFSGSGSGTDFTLTISSLQAEDVAVYYCQHSWEIPWTFGQGTKLEIKR
For B1, the figures for the concentration giving a half-maximal response (EC50) in test [1] and in test [2] were 4.66 µg/mL and 3.45 µg/mL, respectively.

B2: SC27.103 mouse monoclonal anti-CLDN antibody (antibody, V domains shown)
VH: EVHLQQSGPELVKPGGSMKISCKASGYSFTGYTMNWVKQSHGKNLEWIGLFNPYNGGTSYNQKFKGKATLTVDKSSSTAYMELLSLTSEDSAVYYCARCYRYDGLDYWGQGTTLTVSS
VL: QIVLTQSPAIMSASLGERVTMTCTASSSVSSSYLHWYQQKPGSSPTLWIYRTSDLASGVPARFSGSGSGTSYSLTISSMEAEDAATYYCHQYHRSPWTFGGGTRLEIK
B2: the MFI is 75 in test [3], 99600 in [4] and 12100 in test [5]. For the same molecule, the “apparent IC50 of saporin-mediated cell killing” value in [6] was 58 nM; in test [7] it was 466 nM. Further, in test [8], the binding result is given as “no binding (tested: 10 µg/mL)”. In addition, the “apparent IC50 of killing of HEK-293T cells overexpressing hCLDN6; antibody titrated 0.15 to 1000 nM with anti-mouse IgG Fab-saporin, CellTiter-Glo” value in [9] worked out at 57.7 nM. For the same molecule, the “apparent IC50 of killing of HEK-293T cells overexpressing hCLDN9; antibody titrated 0.15 to 1000 nM with anti-mouse IgG Fab-saporin, CellTiter-Glo” value in test [10] was 466 nM.

B3: SC27.1 mouse monoclonal anti-CLDN antibody (antibody, V domains shown)
VH: EVQLQESRPELVKPGASVKISCKTSGYTFTEYTLHWVKQSHGKSLEWIGGINPNNGDTIYNQKFKGKATLTVDKSSSTAYMELRSLTSEYSAVYYCARRAITVYAMDYWGQGTSVTVSS
VL: DIQMTQSSSSFSVSLGDRVTITCKASEDIYNRLAWYQQKPGNAPRLLISGATSLETGTPSRFSGSGSGKDYTLSITSLRTEDAATYYCQQYWSTPLTFGTGTKLELK
On to B3, for which the ΔMFI came to 21 in test [11]; 0 in test [12]; 118 in test [13]; 1580 in test [14]; 223 in [15]; 643 in [16]. Moreover, the ΔMFI in test [17] is 53; in [18], 194; in [19] it was 733; in test [20], 250; in test [21] it was 0; in test [22], 17. The ΔMFI worked out at 88 in test [23], 763 in test [24], 60 in [25] and 31 in test [26].
